Biological target: head domain of PPRV ICV'89 strain H protein (residues 156-610) (peste des petits ruminants virus, strain Ivory Coast'89 (ICV'89))
Assay: SEC

“head domain of PPRV ICV'89 strain H protein (residues 156-610) (domain or fragment)” gave a stoichiometry N of 2.
